Source: the Human Domainome abundance scans (Beltran et al. 2025)
± gives the uncertainty stated by the source.

B1: Intersectin-2, residues 1129 to 1183; numbered along this chain, Q9NZM3 (parent)
chain: VCQVIAMYDYAANNEDELSFSKGQLINVMNKDDPDWWQGEINGVTGLFPSNYVKM

Variants of: B1
Test: abundance fitness (aPCA) (normalised: wild type 0, dead -1); higher = more abundant; growth selection in yeast, the domain comes from the species named
Conditions: Homo sapiens

Variant	abundance fitness
K31R	-0.061 ± 0.041
K31A	0.173 ± 0.033
V53W	-1.11 ± 0.23
V53G	-0.116 ± 0.036
K54Y	-0.104 ± 0.026
D32R	-0.049 ± 0.041
D32S	-0.063 ± 0.031
D32Y	-0.077 ± 0.052
D32F	-0.205 ± 0.05
D32N	0.021 ± 0.047
L25T	-0.059 ± 0.055
L25N	-0.054 ± 0.068
L25H	-0.054 ± 0.039
L25V	-0.011 ± 0.03
L25I	0.006 ± 0.04
L25S	-0.01 ± 0.032
L25G	-0.035 ± 0.032
T45A	-0.044 ± 0.028
T45I	-0.103 ± 0.045
T45P	-0.083 ± 0.038
G39E	-0.913 ± 0.098
G39H	-0.896 ± 0.3
K22T	-0.064 ± 0.051
K22P	-0.154 ± 0.043

Variant	abundance fitness
K22N	-0.025 ± 0.063
K22R	-0.121 ± 0.028
K22D	-0.22 ± 0.052
G46H	-1.05 ± 0.1
G46A	-0.137 ± 0.03
Q3N	-0.169 ± 0.064
Q3P	-0.116 ± 0.032
Q3E	0.081 ± 0.062
Q3V	-0.042 ± 0.052
Y8Q	-0.084 ± 0.05
Y8D	-0.197 ± 0.065
M55K	-0.233 ± 0.21
M55Q	-0.09 ± 0.082
D33V	-0.092 ± 0.038
D33A	-0.065 ± 0.045
D33I	-0.112 ± 0.069
F20C	-0.596 ± 0.099
F20V	-0.357 ± 0.029
F20Y	-0.497 ± 0.062
F20P	-0.919 ± 0.11
E15N	-0.123 ± 0.069
E15K	-0.048 ± 0.059
E15C	-0.048 ± 0.031
E15R	-0.037 ± 0.03

Variant	abundance fitness
M7G	-0.081 ± 0.028
M7P	-0.897 ± 0.088
M7V	-0.065 ± 0.045
M7S	0.029 ± 0.032
M7R	-0.115 ± 0.039
I41R	-0.028 ± 0.031
I41S	-0.038 ± 0.04
V28F	-0.778 ± 0.07
P34R	-0.018 ± 0.043
P34H	-0.194 ± 0.07
P34W	-0.161 ± 0.061
E17P	-0.756 ± 0.12
E17Y	0.064 ± 0.048
E17I	-0.215 ± 0.072
E17T	-0.158 ± 0.049
E17Q	-0.042 ± 0.043
E17W	-0.322 ± 0.054
S21N	-0.006 ± 0.047
S21V	-0.032 ± 0.037
L47N	-0.086 ± 0.061
L47A	-0.007 ± 0.031
L47C	-0.185 ± 0.057
V44E	-0.108 ± 0.062
V44W	-0.151 ± 0.049

Variant	abundance fitness
V44G	0.001 ± 0.039
V44C	-0.023 ± 0.045
M29Q	-0.125 ± 0.063
M29C	-0.022 ± 0.039
M29L	-0.013 ± 0.04
N27I	-0.015 ± 0.06
N27C	-0.046 ± 0.03
A12C	-0.115 ± 0.05
A12K	-0.012 ± 0.072
A12H	-0.221 ± 0.07
A12F	-0.663 ± 0.11
V4L	-0.297 ± 0.033
V4D	-0.511 ± 0.084
V4T	-0.079 ± 0.044
V4K	-0.62 ± 0.041
V4H	-0.205 ± 0.067
G23E	-0.098 ± 0.047
G23N	0 ± 0.041
W37M	-0.283 ± 0.061
W37D	-0.865 ± 0.18
W37F	-0.156 ± 0.037
W37V	-0.78 ± 0.061
W37I	-0.615 ± 0.095
Q24F	-0.015 ± 0.066

Variant	abundance fitness
D16C	-0.014 ± 0.057
D16S	-0.004 ± 0.033
D16H	-0.101 ± 0.057
D16L	-0.034 ± 0.044
C2L	-0.223 ± 0.056
A6D	-0.93 ± 0.13
A6Y	-0.927 ± 0.19
A6R	-0.883 ± 0.056
I5F	-0.022 ± 0.038
I5N	-0.186 ± 0.049
N14E	-0.044 ± 0.036
N14I	-0.092 ± 0.065
N14M	-0.016 ± 0.042
N14H	0.02 ± 0.066
N14V	-0.099 ± 0.043
N42K	-0.093 ± 0.054
N42A	-0.013 ± 0.049
D35F	-0.085 ± 0.069
D35P	-0.39 ± 0.038
D35I	0.03 ± 0.061
D35N	-0.032 ± 0.043
D35H	-0.048 ± 0.05
Q38I	0.105 ± 0.06
Q38N	-0.248 ± 0.073

Variant	abundance fitness
Q38P	-0.654 ± 0.061
Q38H	0.04 ± 0.056
Q38E	-0.003 ± 0.055
Q38F	-0.059 ± 0.063
G43R	-0.069 ± 0.036
G43S	-0.024 ± 0.033
G43Q	-0.202 ± 0.067
P49L	-0.143 ± 0.032
P49N	-0.106 ± 0.062
P49V	-0.782 ± 0.059
S19R	-0.181 ± 0.033
S19P	-0.166 ± 0.032
S50E	-0.266 ± 0.056
W36M	0.002 ± 0.032
W36K	0.045 ± 0.054
W36N	-0.023 ± 0.038
W36I	-0.159 ± 0.072
W36G	-0.626 ± 0.055
L18F	-0.2 ± 0.057
L18R	-0.979 ± 0.072
Y10I	-0.494 ± 0.069
Y10V	-0.455 ± 0.036
N51P	-0.038 ± 0.057
F48L	0 ± 0.036

Variant	abundance fitness
F48Q	-0.778 ± 0.12
F48T	-0.85 ± 0.096
F48A	-0.69 ± 0.036
F48G	-0.945 ± 0.079
E40Y	-0.176 ± 0.06
I26E	-0.789 ± 0.088
I26F	-0.085 ± 0.031
I26M	-0.232 ± 0.04
I26N	-0.719 ± 0.13
I26V	-0.089 ± 0.033
I26W	-0.971 ± 0.076
Y52L	0.037 ± 0.045
Y52G	-0.122 ± 0.028
N13G	0.031 ± 0.039
N13L	0.01 ± 0.036
N13R	0.038 ± 0.047
N13T	0.011 ± 0.037
D9M	-0.177 ± 0.065
A11L	-0.064 ± 0.031
A11V	-0.072 ± 0.03
A11Q	-0.003 ± 0.052
A11H	0.042 ± 0.042
A11S	-0.007 ± 0.027
